Source: publication PMC10180240, “Semi-Rational Design of L-Isoleucine Dioxygenase Generated Its Activity for Aromatic Amino Acid Hydroxylation” (Molecules, 2023)

How the values were obtained:
[1] = test system: T1, N[C@@H](CCc1ccccc1)C(=O)O; assay: succinate release, succinic acid assay kit; Michaelis-Menten fit; assay type: biochemical, Bacillus thuringiensis; details: 10 mM alpha-KG, 0.5 mM FeSO4, 10 mM ascorbic acid, 50 mM Bis-Tris pH 6.0, 25 °C
T1 construct: full-length ido (240 aa without tag) in pET-28a(+) NcoI/SalI, expressed in E. coli BL21(DE3), Ni column
Excerpt: (§1) succinate release, succinic acid assay kit; Michaelis-Menten fit on L-isoleucine dioxygenase (IDO)

[2] = test system: T2, N[C@@H](Cc1ccccc1)C(=O)O; assay: as above; assay type: biochemical, Bacillus thuringiensis; details: 10 mM alpha-KG, 0.5 mM FeSO4, 10 mM ascorbic acid, 50 mM Bis-Tris pH 6.0, 25 °C
T2 construct: full-length ido (240 aa without tag) in pET-28a(+) NcoI/SalI, expressed in E. coli BL21(DE3), Ni column
Excerpt: as §1

Substance | Km [1] [µM] | Vmax [1] [µmol/min/mg] | kcat [1] [s⁻¹] | kcat/Km [1] [M⁻¹ s⁻¹] | Km [2] [µM] | Vmax [2] [µmol/min/mg] | kcat [2] [s⁻¹] | kcat/Km [2] [M⁻¹ s⁻¹]
L-isoleucine dioxygenase (IDO) (Bacillus thuringiensis; Y143I) | 20 ± 0 | 0.08 | 0.04 | 2000 ± 80 | 30 ± 0 | 0.1 | 0.04 | 1330 ± 40
L-isoleucine dioxygenase (IDO) (Bacillus thuringiensis; Y143D) |  |  |  |  | 40 ± 0 | 0.15 | 0.08 | 2000 ± 10
L-isoleucine dioxygenase (IDO) (Bacillus thuringiensis; S153A) | 20 ± 0 | 0.09 | 0.05 | 2500 ± 40 | 20 ± 0 | 0.05 | 0.03 | 1500 ± 50
L-isoleucine dioxygenase (IDO) (Bacillus thuringiensis; S153Q) | 40 ± 10 | 0.21 | 0.14 ± 0.01 | 3500 ± 100 |  |  |  | 
L-isoleucine dioxygenase (IDO) (Bacillus thuringiensis; S153Y) | 20 ± 0 | 0.08 | 0.03 | 1500 ± 40 |  |  |  | 
